The series concerns the molecule itself. Description: cryo-EM structure.

B1: human mGlu5 (21-872), metabotropic glutamate receptor subtype 5, in MSP2N2 lipid nanodisc (receptor)
chain: QSSERRVVAHMPGDIIIGALFSVHHQPTVDKVHERKCGAVREQYGIQRVEAMLHTLERINSDPTLLPNITLGCEIRDSCWHSAVALEQSIEFIRDSLISSEEEEGLVRCVDGSSSSFRSKKPIVGVIGPGSSSVAIQVQNLLQLFNIPQIAYSATSMDLSDKTLFKYFMRVVPSDAQQARAMVDIVKRYNWTYVSAVHTEGNYGESGMEAFKDMSAKEGICIAHSYKIYSNAGEQSFDKLLKKLTSHLPKARVVACFCEGMTVRGLLMAMRRLGLAGEFLLLGSDGWADRYDVTDGYQREAVGGITIKLQSPDVKWFDDYYLKLRPETNHRNPWFQEFWQHRFQCRLEGFPQENSKYNKTCNSSLTLKTHHVQDSKMGFVINAIYSMAYGLHNMQMSLCPGYAGLCDAMKPIDGRKLLESLMKTNFTGVSGDTILFDENGDSPGRYEIMNFKEMGKDYFDYINVGSWDNGELKMDDDEVWSKKSNIIRSVCSEPCEKGQIKVIRKGEVSCCWTCTPCKENEYVFDEYTCKACQLGSWPTDDLTGCDLIPVQYLRWGDPEPIAAVVFACLGLLATLFVTVVFIIYRDTPVVKSSSRELCYIILAGICLGYLCTFCLIAKPKQIYCYLQRIGIGLSPAMSYSALVTKTNRIARILAGSKKKICTKKPRFMSACAQLVIAFILICIQLGIIVALFIMEPPDIMHDYPSIREVYLICNTTNLGVVTPLGYNGLLILSCTFYAFKTRNVPANFNEAKYIAFTMYTTCIIWLAFVPIYFGSNYKIITMCFSVSLSATVALGCMFVPKVYIILAKPERNVRSAFTTSTVVRMHVGDGKSSSAASRSSSLVNLWKRRGSS
Consider B1, for which the binding result is recorded as “binds”.

Values taken from article PMC10491200 (bioRxiv, 2023).
